{"source": "paper PMC3084791", "about": "“The Structure of Helicobacter pylori HP0310 Reveals an Atypical Peptidoglycan Deacetylase” (PLoS ONE, 2011)", "proteins": {"B1": {"name": "Peptidoglycan deacetylase (HP0310, HpPgdA) from Helicobacter pylori (enzyme)", "chain": "MAKEILVAYGVDIDAVAGWLGSYGGEDSPDDISRGLFAGEVGIPRLLKLFKKYHLPATWFVPGHSIETFPEQMKMIVDAGHEVGAHGYSHENPIAMSTKQEEDVLLKSVELIKDLTGKAPTGYVAPWWEFSNITNELLLKHGFKYDHSLMHNDFTPYYVRVGDSWSKIDYSLEAKDWMKPLIRGVETNLVEIPANWYLDDLPPMMFIKKSPNSFGFVSPRDIGQMWIDQFDWVYREMDYAVFSMTIHPDVSARPQVLLMHEKIIEHINKHEGVRWVTFNEIADDFLKRNPRKK", "notes": "HP0310 (HpPgdA), peptidoglycan deacetylase, amplified from genomic H. pylori G27 with primers from the ATG to the stop codon; soluble protein of 293 amino acids; residues 2 to 291 visible in the crystal; Cloned in pET151 in frame with an N-terminal His-tag flanked by a TEV site; the entry of strain 26695 would be another; also called His tagged-Hp0310; H. pylori peptidoglycan deacetylase; source: …"}}, "target": "the molecule itself", "assay": "crystal structure; crystals at 20°C by vapor diffusion, 0.2 M ammonium sulfate, 0.1 M trisodium citrate pH 5.6, 15% PEG 4000; space group C2221; one tetramer in the asymmetric unit; 2.57 Å", "data": [{"protein": "B1", "values": [{"measurement": "stoichiometry N", "value": 4}]}]}
